Results taken from PMC3281933.

Target: low density lipoprotein receptor-related protein 1 (LRP1) (human (endogenous in 1064Sk human skin fibroblasts))

B1: CCN1 (CYR61) (natural protein)
chain: TCPAACHCPLEAPKCAPGVGLVRDGCGCCKVCAKQLNEDCSKTQPCDHTKGLECNFGASSTALKGICRAQSEGRPCEYNSRIYQNGESFQPNCKHQCTCIDGAVGCIPLCPQELSLPNLGCPNPRLVKVTGQCCEEWVCDEDSIKDPMEDQDGLLGKELGFDASEVELTRNNELIAVGKGSSLKRLPVFGMEPRILYNPLQGQKCIVQTTSWSQCSKTCGTGISTRVTNDNPECRLVKETRICEVRPCGQPVYSSLKKGKKCSKTKKSPEPVRFTYAGCLSVKKYRPKYCGSCVDGRCCTPQLTRTVKMRFRCEDGETFSKNVMMIQSCKCNYNCPHANEAAFPFYRLFNDIHKFRD
Work on B1 yielded a CCN1/TNFα-induced apoptosis of human skin fibroblasts (CCN1 2 µg/ml, TNFα 10 ng/ml, 5 hrs) after pre-incubation with 1 µM recombinant RAP of 60%.
